Data from US20220380456A1 (UNITED KINGDOM RESEARCH AND INNOVATION, published 2022).

T1: His6-TEV-MSP1D1 (CA15914) (human Apo A-I derived, engineered, biotinylated with EZ-link NHS-Biotin for the BLI experiment only)
T1 construct: Membrane scaffold protein; The entry holds the 6xHis tag, the TEV cleavage site and MSP1D1; Tested in Apo-state (lipid free) and in Nanodisc-state (POPC nanodisc, two MSP1D1 per nanodisc)
T1 chain: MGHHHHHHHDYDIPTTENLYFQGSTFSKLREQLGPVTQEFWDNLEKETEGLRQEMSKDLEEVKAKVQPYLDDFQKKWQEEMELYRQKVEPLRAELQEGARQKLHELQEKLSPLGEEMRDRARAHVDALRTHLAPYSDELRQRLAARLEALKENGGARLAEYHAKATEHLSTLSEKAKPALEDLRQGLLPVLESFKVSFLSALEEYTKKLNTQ

B1: MbNbE4^c7HopQ MegaBody (CA15191) (other)
chain: QVQLVESGGGLVQTKTTTSVIDTTNDAQNLLTQAQTIVNTLKDYCPILIAKSSSSNGGTNNANTPSWQTAGGGKNSCATFGAEFSAASDMINNAQKIVQETQQLSANQPKNITQPHNLNLNSPSSLTALAQKMLKNAQSQAEILKLANQVESDFNKLSSGHLKDYIGKCDASAISSANMTMQNQKNNWGNGCAGVEETQSLLKTSAADFNNQTPQINQAQNLANTLIQELGNNTYEQLSRLLTNDNGTNSKTSAQAINQAVNNLNERAKTLAGGTTNSPAYQATLLALRSVLGLWNSMGYAVICGGYTKSPGENNQKDFHYTDENGNGTTINCGGSTNSNGTHSYNGTNTLKADKNVSLSIEQYEKIHEAYQILSKALKQAGLAPLNSKGEKLEAHVTTSKYGSLRLSCAASGRTFGSTFMGWFRQAPGKERDFVASITWNRGLTTYADSVKGRFTISRDSAKNTVDLQMNNLKPEDTAVYYCVLGMGTSFASWGQGTQVTVSSHHHHHHEPEA
notes: MegaBody: c7HopQ scaffold inserted in the first β-turn of Nanobody MP1521_E4; Entry includes 6xHis and EPEA tags
B2: MbNb2_B9^c7HopQ MegaBody (CA15903) (other)
chain: QVQLVESGGGLVQTKTTTSVIDTTNDAQNLLTQAQTIVNTLKDYCPILIAKSSSSNGGTNNANTPSWQTAGGGKNSCATFGAEFSAASDMINNAQKIVQETQQLSANQPKNITQPHNLNLNSPSSLTALAQKMLKNAQSQAEILKLANQVESDFNKLSSGHLKDYIGKCDASAISSANMTMQNQKNNWGNGCAGVEETQSLLKTSAADFNNQTPQINQAQNLANTLIQELGNNTYEQLSRLLTNDNGTNSKTSAQAINQAVNNLNERAKTLAGGTTNSPAYQATLLALRSVLGLWNSMGYAVICGGYTKSPGENNQKDFHYTDENGNGTTINCGGSTNSNGTHSYNGTNTLKADKNVSLSIEQYEKIHEAYQILSKALKQAGLAPLNSKGEKLEAHVTTSKYGSLRLSCVRSARTFGSVAMGWFRQAPGKEREFVTAIDWSGSNTLYADSVKGRFTISRDNAKNTVYLQMNSLKPDDTAVYYCAASRRVVVTTSDFDSWGQGTQVTVSSHHHHHHEPEA
notes: MegaBody: c7HopQ scaffold inserted in the first β-turn of Nanobody MP1522_B9; Entry includes 6xHis and EPEA tags
B3: MbNbB7^c7HopQ MegaBody (CA15901) (other)
chain: QVQLVESGGGLVQTKTTTSVIDTTNDAQNLLTQAQTIVNTLKDYCPILIAKSSSSNGGTNNANTPSWQTAGGGKNSCATFGAEFSAASDMINNAQKIVQETQQLSANQPKNITQPHNLNLNSPSSLTALAQKMLKNAQSQAEILKLANQVESDFNKLSSGHLKDYIGKCDASAISSANMTMQNQKNNWGNGCAGVEETQSLLKTSAADFNNQTPQINQAQNLANTLIQELGNNTYEQLSRLLTNDNGTNSKTSAQAINQAVNNLNERAKTLAGGTTNSPAYQATLLALRSVLGLWNSMGYAVICGGYTKSPGENNQKDFHYTDENGNGTTINCGGSTNSNGTHSYNGTNTLKADKNVSLSIEQYEKIHEAYQILSKALKQAGLAPLNSKGEKLEAHVTTSKYGSLRLSCAASGRSFSSYGMGWFRQAPGKEREFAAGITGTAGITYYTDSVKGRFTISRDNAKNTVYLQMNNLKPEDTAVYYCAAGLTSYAGRGAAGYDYWGQGTQVTVSSHHHHHHEPEA
notes: MegaBody: c7HopQ scaffold inserted in the first β-turn of Nanobody MP1522_B7; Entry includes 6xHis and EPEA tags
B4: MbNbH5^c7HopQ MegaBody (CA15904) (other)
chain: QVQLVESGGGLVQTKTTTSVIDTTNDAQNLLTQAQTIVNTLKDYCPILIAKSSSSNGGTNNANTPSWQTAGGGKNSCATFGAEFSAASDMINNAQKIVQETQQLSANQPKNITQPHNLNLNSPSSLTALAQKMLKNAQSQAEILKLANQVESDFNKLSSGHLKDYIGKCDASAISSANMTMQNQKNNWGNGCAGVEETQSLLKTSAADFNNQTPQINQAQNLANTLIQELGNNTYEQLSRLLTNDNGTNSKTSAQAINQAVNNLNERAKTLAGGTTNSPAYQATLLALRSVLGLWNSMGYAVICGGYTKSPGENNQKDFHYTDENGNGTTINCGGSTNSNGTHSYNGTNTLKADKNVSLSIEQYEKIHEAYQILSKALKQAGLAPLNSKGEKLEAHVTTSKYGSLRLSCAASGFTFSTYSMSWVRQAPGKGLEWVSRILTDGGTTSYPDSVKGRFTISRDNAKNTLYLQMNNLKPEDTAVYYCARGWPSDGYSGGYRGQGTQVTVSSHHHHHHEPEA
notes: MegaBody: c7HopQ scaffold inserted in the first β-turn of Nanobody MP1521_H5; Entry includes 6xHis and EPEA tags
B5: MbNbA12^c7HopQ MegaBody (CA15900) (other)
chain: QVQLVESGGGLVQTKTTTSVIDTTNDAQNLLTQAQTIVNTLKDYCPILIAKSSSSNGGTNNANTPSWQTAGGGKNSCATFGAEFSAASDMINNAQKIVQETQQLSANQPKNITQPHNLNLNSPSSLTALAQKMLKNAQSQAEILKLANQVESDFNKLSSGHLKDYIGKCDASAISSANMTMQNQKNNWGNGCAGVEETQSLLKTSAADFNNQTPQINQAQNLANTLIQELGNNTYEQLSRLLTNDNGTNSKTSAQAINQAVNNLNERAKTLAGGTTNSPAYQATLLALRSVLGLWNSMGYAVICGGYTKSPGENNQKDFHYTDENGNGTTINCGGSTNSNGTHSYNGTNTLKADKNVSLSIEQYEKIHEAYQILSKALKQAGLAPLNSKGEKLEAHVTTSKYGSLRLSCAASGRTFSSYNMAWFRQVPGKEREFVASIARTGSGTYYRDSVKGRFTISRDNAKNTVYLQMNSLKPQDTAVYYCTAGGSLATISDYWGQGTQVTVSSHHHHHHEPEA
notes: MegaBody: c7HopQ scaffold inserted in the first β-turn of Nanobody MP1522_A12; Entry includes 6xHis and EPEA tags
B6: MbNbG9^c7HopQ MegaBody (CA15899) (other)
chain: QVQLVESGGGSVQTKTTTSVIDTTNDAQNLLTQAQTIVNTLKDYCPILIAKSSSSNGGTNNANTPSWQTAGGGKNSCATFGAEFSAASDMINNAQKIVQETQQLSANQPKNITQPHNLNLNSPSSLTALAQKMLKNAQSQAEILKLANQVESDFNKLSSGHLKDYIGKCDASAISSANMTMQNQKNNWGNGCAGVEETQSLLKTSAADFNNQTPQINQAQNLANTLIQELGNNTYEQLSRLLTNDNGTNSKTSAQAINQAVNNLNERAKTLAGGTTNSPAYQATLLALRSVLGLWNSMGYAVICGGYTKSPGENNQKDFHYTDENGNGTTINCGGSTNSNGTHSYNGTNTLKADKNVSLSIEQYEKIHEAYQILSKALKQAGLAPLNSKGEKLEAHVTTSKYGSLRLSCAASGRTFSTYRMGWFRQAPGKEREFVAGWNSINIYYADSVKGRFTISGDNAKSTVYLQMNSLKPEDTAVYYCAARGLGQTEYNYWGQGTQVTVSSHHHHHHEPEA
notes: MegaBody: c7HopQ scaffold inserted in the first β-turn of Nanobody MP1521_G9; Entry includes 6xHis and EPEA tags
B7: MDNb1_B9^c7HopQ MegaBody (CA15898) (other)
chain: QVQLVESGGGLVQTKTTTSVIDTTNDAQNLLTQAQTIVNTLKDYCPILIAKSSSSNGGTNNANTPSWQTAGGGKNSCATFGAEFSAASDMINNAQKIVQETQQLSANQPKNITQPHNLNLNSPSSLTALAQKMLKNAQSQAEILKLANQVESDFNKLSSGHLKDYIGKCDASAISSANMTMQNQKNNWGNGCAGVEETQSLLKTSAADFNNQTPQINQAQNLANTLIQELGNNTYEQLSRLLTNDNGTNSKTSAQAINQAVNNLNERAKTLAGGTTNSPAYQATLLALRSVLGLWNSMGYAVICGGYTKSPGENNQKDFHYTDENGNGTTINCGGSTNSNGTHSYNGTNTLKADKNVSLSIEQYEKIHEAYQILSKALKQAGLAPLNSKGEKLEAHVTTSKYGSLRLSCAASGRTLCSIPMGWFRQAPGKEREFVAAIRWSGGSTYYADSVKGRFSISKDNAKNTVYLQMNNLKPEDTATYYCASAAPYSSWSRGLEYDYWGQGTQVTVSSHHHHHHEPEA
notes: MegaBody: c7HopQ scaffold inserted in the first β-turn of Nanobody MP1521_B9; Entry includes 6xHis and EPEA tags; The name is printed 'MDNb', probably for 'MbNb'

Assays:
[1] = molecular target: T1, His6-TEV-MSP1D1 (CA15914); assay: ELISA, purified MegaBody on coated MSP (Apo- or Nanodisc-state) vs non-coated wells, A405
[2] = molecular target: T2, His6-TEV-MSP2N2 (CA15915) (human Apo A-I derived, engineered, UniProt P02647 79-267, limits assumed); assay: as above
T2 construct: Membrane scaffold protein; The entry holds the 6xHis tag, the TEV cleavage site and MSP2N2; Tested in Apo-state, in Nanodisc-state, and as the belt of nanodiscs loaded with GABAAR-β3

Binder	fold ELISA signal over no MSP [1]	fold ELISA signal over no MSP [2]
B1	≥ 4 fold	≥ 4 fold
B2	≥ 4 fold	≥ 4 fold
B3	≥ 4 fold	≥ 4 fold
B4	≥ 4 fold	≥ 4 fold
B5	≥ 4 fold	≥ 4 fold
B6	≥ 4 fold	≥ 4 fold
B7	≥ 4 fold	≥ 4 fold
